Experimental findings from PMC8954249, “The C-Terminal Domain of Liquorilactobacillus nagelii Dextransucrase Mediates the Production of Larger Dextrans Compared to Liquorilactobacillus hordei” (Gels, 2022) are described below.

In data set [1] the target is T1, dsr3510ΔC-term (Liquorilactobacillus nagelii, UniProt A0A3Q8CN51).
T1 construct: gene BSQ50_03510
Description: Michaelis-Menten fit, released fructose (D-fructose/D-glucose assay kit). The data set is classed as biochemical. To be noted: pH 5.0, 30 °C, 0.05 M sodium acetate, 1 mM CaCl2; crude enzyme extract, 2500 µg/mL protein. The source says: Michaelis-Menten fit, released fructose (D-fructose/D-glucose assay kit) on dsr3510ΔC-term

Substrate in data set [2]: OC[C@H]1O[C@@](CO)(O[C@H]2O[C@H](CO)[C@@H](O)[C@H](O)[C@H]2O)[C@@H](O)[C@@H]1O
The data set is described as above. The format is biochemical, Liquorilactobacillus nagelii. To be noted: pH 5.0, 30 °C, 0.05 M sodium acetate, 1 mM CaCl2, crude enzyme extract, 500 µg/mL protein. The source says: Michaelis-Menten fit, released fructose (D-fructose/D-glucose assay kit) on dsr3510 (full-length L. nagelii TMW 1.1827 dextransucrase)

As usually defined, the Km is the concentration of substrate that gives half-maximal velocity. For the molecule `OC[C@H]1O[C@@](CO)(O[C@H]2O[C@H](CO)[C@@H](O)[C@H](O)[C@H]2O)[C@@H](O)[C@@H]1O` [sucrose], in data set [1], the Michaelis constant (Km) is 12.6 ± 0.73 mM.

B1: dsr3510 (full-length L. nagelii TMW 1.1827 dextransucrase) (Liquorilactobacillus nagelii) (protein)
chain: NVKISADSTPQNVVEQSSSSNDSSSNSSSSSKTSSSSKVNTDQVNEDTSSSITKENNISAMPKKQTQLTTATTAADKVTQTTDTSATTTAATNQQKNNQVESSSQSSSEQASSTISNNTTVSNTDSQQSSSQVANVTGGKYVDSNETWSYVDSQGNKIKGLNKVDGNLQYFDETSGAQIKGEYEKVGETTYYFDKNSGNAIPYTLTSDGKTTAYQADGQPAGAGFFTNQDGEIYYFDADGSYKTGLQTLNGTTYYFDSNGYLSKDTVENVDGKTYYSQADTGKTIQLTSQNLPTQTSTAKEVASFAAHNVAYSYDTKSFENINGYLTADSWYRPTYILNDGQLWIKSTSTDFRPLLMAWWPSKSIEADYLNYMIEQGIISSTRNFSANDDSLVLNSAAQNVQIALEKNLTMTGSVNWLRQIMQSFVKKEAIWNKTSEDPSSDGLSSLQGGFLTYQNSKLTPNANSDYRILGYVPSYIKNSNDKGSEFLLANDIDNSNPVVQAEELNWLYYLMNFGSITADDSSANFDGIRVDAVDNVDADLLKIAADYFKDAYQVNQNDQNADSHLSILEDWSNNDPQYVYDQGANQLTMDDYFVGQMNYSLENAPGSNSKMERFVQWYLINRANDSTEDTAIPNYTFVRAHDSNSQDQIQKAIQAATGGEYGVFTWEQLQQGLTLYYADQASTEKKYNRYNIPSAYAMLLTNKDTVPRVYYGDLYLEGGQYMANKTIYYDTITNLLASRVKYVAGGQTMSVDGNDVLTSVRFGKGAMTASDQGTSETRTEGVGVIVSNNTSLKLKDGDQVVLHMGVAHRNQAYRAAVLTTKDGIINYTSDDNAPIAYTDNNGDLVFTNQNLLINGVEEANTSIQGYANPDVTGYLAVWVPVGAATTQDARTAATTDSSTDGKTLHSNAALDSNVIYEGFSNFISYPDSHDDNTNVVIAKNTDLFKALGITSFELAPQYRTSGDKTFLDSTIDNGYAFTDRYDLGYGTPTKYGTVDDLRNVIKALHAAGIQAIADWVPDQIYNLPTEELVTVNRTDERGNQVASSKIHDLLYVANTIGGGDYQKKYGGAFLEVLETEYPDLFKEIQASTGKTIDPSQKITSWSAEYFNGTNILGRGSDYVLRSDDNQQYFYVGDDSSEVQKFLPASLVAENDRQKYSLGDQSANNYFVQENLNGKWYLIDPLNNQKQTGFQYIPDQIKTVYYNAQGEMQYGQQFLGGHWYLFDSRTGAMETGLQYIGNQHKTVYYNVQGQMQYGQQNVNGHWYLFDSKTGAMKTGWQYISNQHKTVYYNTQGQMQYGQQNVNGHWYLFDSKTGAMKTGWQYISDQHKTVYYNGQGQMQYGQQNVNGHWYLFDSKTGAMKTGWQYISNQHKTVYYNSQGQMVYGKQVIAGKTYYFDTKTGRKL
The Vmax is the top rate of the reaction or transport when substrate is in excess. For the molecule B1, in data set [2], the Km amounted to 10.97 ± 1.56 mM and the maximal velocity (Vmax) worked out at 200 µM/min.
